The target in assay [1] is T117-F MPER scaffold. Briefly: BLI. Background: Biolayer interferometry detects binding as a change in optical thickness at a sensor tip.
The target of assay [2] is T117-F MPER scaffold. Briefly: BLI. This is another data set of the same source.

B1: 10E8v4-P100fA Fab (Fab, V domains shown)
VH: EVRLVESGGGLVKPGGSLRLSCSASGFDFDNAWMTWVRQPPGKGLEWVGRITGPGEGWSVDYAESVKGRFTISRDNTKNTLYLEMNNVRTEDTGYYFCARTGKYYDFWSGYAPGEEYFQDWGQGTLVIVSS
VL: ASELTQDPAVSVALKQTVTITCRGDSLRSHYASWYQKKPGQAPVLLFYGKNNRPSGIPDRFSGSASGNRASLTITGAQAEDEADYYCSSRDKSGSRLSVFGGGTKLTVL
Broadly, the koff is a measure of how fast the partners let go of each other. As a reminder, the Kd is a measure of binding affinity in units of concentration. Read a low Kd as tighter binding. With B1, the koff with T117-F MPER scaffold [1] was 0.021 s⁻¹. For the same molecule, binding in the assay with T117-F MPER scaffold [2] was characterised by a dissociation constant (Kd) of 103 nM.

B2: 10E8v4-P100gA Fab (Fab, V domains shown)
VH: EVRLVESGGGLVKPGGSLRLSCSASGFDFDNAWMTWVRQPPGKGLEWVGRITGPGEGWSVDYAESVKGRFTISRDNTKNTLYLEMNNVRTEDTGYYFCARTGKYYDFWSGYPAGEEYFQDWGQGTLVIVSS
VL: ASELTQDPAVSVALKQTVTITCRGDSLRSHYASWYQKKPGQAPVLLFYGKNNRPSGIPDRFSGSASGNRASLTITGAQAEDEADYYCSSRDKSGSRLSVFGGGTKLTVL
The molecule B2 gave an off-rate (koff) with T117-F MPER scaffold [1] of 0.0314 s⁻¹. Besides, the equilibrium dissociation constant (Kd) with T117-F MPER scaffold [2] stood at 171 nM.

B3: 10E8v4 Fab (Fab, V domains shown)
VH: EVRLVESGGGLVKPGGSLRLSCSASGFDFDNAWMTWVRQPPGKGLEWVGRITGPGEGWSVDYAESVKGRFTISRDNTKNTLYLEMNNVRTEDTGYYFCARTGKYYDFWSGYPPGEEYFQDWGQGTLVIVSS
VL: SELTQDPAVSVALKQTVTITCRGDSLRSHYASWYQKKPGQAPVLLFYGKNNRPSGIPDRFSGSASGNRASLTITGAQAEDEADYYCSSRDKSGSRLSVFGGGTKLTVL
B3 showed a koff in the assay with T117-F MPER scaffold [1] of 0.00137 s⁻¹. In the assay with T117-F MPER scaffold [2], this molecule showed a dissociation constant Kd of 9.4 nM.

B4: 10E8v4-H31FLC Fab (Fab, V domains shown)
VH: EVRLVESGGGLVKPGGSLRLSCSASGFDFDNAWMTWVRQPPGKGLEWVGRITGPGEGWSVDYAESVKGRFTISRDNTKNTLYLEMNNVRTEDTGYYFCARTGKYYDFWSGYPPGEEYFQDWGQGTLVIVSS
VL: SELTQDPAVSVALKQTVTITCRGDSLRSFYASWYQKKPGQAPVLLFYGKNNRPSGIPDRFSGSASGNRASLTITGAQAEDEADYYCSSRDKSGSRLSVFGGGTKLTVL
In the case of B4, in the assay with T117-F MPER scaffold [1], the koff came to 0.0364 s⁻¹. In the assay with T117-F MPER scaffold [2], this molecule returned a Kd of 1460 nM.

B5: 10E8v4-P100fA-P100gA Fab (Fab, V domains shown)
VH: EVRLVESGGGLVKPGGSLRLSCSASGFDFDNAWMTWVRQPPGKGLEWVGRITGPGEGWSVDYAESVKGRFTISRDNTKNTLYLEMNNVRTEDTGYYFCARTGKYYDFWSGYAAGEEYFQDWGQGTLVIVSS
VL: ASELTQDPAVSVALKQTVTITCRGDSLRSHYASWYQKKPGQAPVLLFYGKNNRPSGIPDRFSGSASGNRASLTITGAQAEDEADYYCSSRDKSGSRLSVFGGGTKLTVL
Regarding B5, in the assay with T117-F MPER scaffold [1], the koff worked out at 0.0583 s⁻¹. In the assay with T117-F MPER scaffold [2], the Kd was 2750 nM.

(Values after paper PMC8293163 (2021).)
